Test results taken from IntAct's records for PubMed 21505417.

B1: Intraflagellar transport protein 25 (Chlamydomonas reinhardtii), B8LIX8 (parent)
chain: MKDYAREENGGLVVMASCSDERFPPENMLDGKDNTFWVTTGMFPQEFVLRLESCIRVSKITTLSLNVRKLAVEKCDQDKPDQFEKVFEVELANRGDRLQTEVHQVNIRAKYLKFILLQGHGEFATVNRVSVVGGDDDGGGYDEPGGGYGSMQRQPSMGYGGGGGSAATGFAADPGNAAAGGGGGFEDEF
partner: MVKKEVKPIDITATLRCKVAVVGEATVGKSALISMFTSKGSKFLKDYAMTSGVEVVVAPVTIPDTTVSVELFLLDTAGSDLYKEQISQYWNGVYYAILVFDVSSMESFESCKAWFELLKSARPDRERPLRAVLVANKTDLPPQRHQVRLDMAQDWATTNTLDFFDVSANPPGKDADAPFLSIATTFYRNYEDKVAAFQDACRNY

Variants of: B1
Conditions: with ift27_chlre IFT27, A8HN58

Variant	effect of a mutation on the interaction
MKDYAREENGGLVVMASCSDERFPPENMLDGKDNTFWVTRGMFPQEFVLRLESCIRVSKITTLSLNVRKLAVEKCDQDKPDQFEKVFEVELANRGDRLQTEVHQVNIRAKYLKFILLQGHGEFATVNRVSVVGGDDDGGGYDEPGGGYGSMQRQPSMGYGGGGGSAATGFAADPGNAAAGGGGGFEDEF [T40R]	disrupting interaction
MKDYAREENGGLVVMASCSDERFPPENMLDGKDNTFWRTTGMFPQEFVLRLESCIRVSKITTLSLNVRKLAVEKCDQDKPDQFEKVFEVELANRGDRLQTEVHQVNIRAKYLKFILLQGHGEFATVNRVSVVGGDDDGGGYDEPGGGYGSMQRQPSMGYGGGGGSAATGFAADPGNAAAGGGGGFEDEF [V38R]	disrupting interaction
MKDYAREENGGLVVMASCSDERFPPENMLDGKDNTFWVTTGMFPQEFVLRLESCIRVSKITTLSLNVRKLAVEKCDQDKPDQFEKVFEVELANRGDRLQTEVHQVNIRAKYLKFILLQGHGEFAEVNRVSVVGGDDDGGGYDEPGGGYGSMQRQPSMGYGGGGGSAATGFAADPGNAAAGGGGGFEDEF [T125E]	disrupting interaction
